The target in this series is T1, SFVmac PR-RT WT (simian foamy virus from macaque (SFVmac), UniProt P23074 1-751).
T1 sequence: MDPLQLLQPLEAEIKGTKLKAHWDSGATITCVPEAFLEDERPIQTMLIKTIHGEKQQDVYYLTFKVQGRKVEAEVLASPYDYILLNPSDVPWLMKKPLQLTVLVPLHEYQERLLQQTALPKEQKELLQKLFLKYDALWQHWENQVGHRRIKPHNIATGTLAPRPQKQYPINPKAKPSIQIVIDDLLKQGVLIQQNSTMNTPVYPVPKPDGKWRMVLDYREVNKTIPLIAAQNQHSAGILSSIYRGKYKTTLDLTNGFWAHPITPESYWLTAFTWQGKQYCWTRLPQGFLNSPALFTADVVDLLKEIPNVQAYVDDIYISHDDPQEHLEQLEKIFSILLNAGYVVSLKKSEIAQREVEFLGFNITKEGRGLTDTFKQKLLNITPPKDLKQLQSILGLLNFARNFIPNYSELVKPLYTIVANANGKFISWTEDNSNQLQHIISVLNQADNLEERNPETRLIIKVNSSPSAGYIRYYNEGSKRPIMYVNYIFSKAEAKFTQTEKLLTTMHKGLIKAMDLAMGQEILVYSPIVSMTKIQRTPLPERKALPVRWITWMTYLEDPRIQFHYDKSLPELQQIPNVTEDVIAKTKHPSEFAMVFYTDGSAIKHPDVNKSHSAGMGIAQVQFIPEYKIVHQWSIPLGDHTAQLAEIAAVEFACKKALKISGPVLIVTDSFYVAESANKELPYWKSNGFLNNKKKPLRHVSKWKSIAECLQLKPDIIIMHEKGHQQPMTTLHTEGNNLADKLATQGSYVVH
The series can be described thus: fluorescence anisotropy. In general terms: Polarisation of emitted light reports the rotation of a fluorescent probe.

Usually Kd stands for a measure of binding affinity in units of concentration. A high value points to lower affinity.

B1: 24/40-mer DNA/DNA P/T (dsDNA)
DNA 1: ATCACCAGGAGAGGGGAAAGCGGA
DNA 2: CTAATTCCGCTTTCCCCTCTCCTGGTGATCCTTTCCATCC
For the molecule B1, the equilibrium dissociation constant (Kd) stood at 36.4 ± 2.4 nM.

B2: 24/40-mer DNA/RNA P/T (DNA:RNA)
DNA: ATCACCAGGAGAGGGGAAAGCGGA
RNA: CUAAUUCCGCUUUCCCCUCUCCUGGUGAUCCUUUCCAUCC
As to B2, binding was characterised by a dissociation constant (Kd) of 32.4 ± 4.2 nM.

Source of the values: paper PMC2241919.
